From patent US20030036169A1 (University of Texas, published 2003)
Where a chain is given by its changes, count along the chain named. No end group written: not given here.

T1: Mint 3 (rat, UniProt O70248 1-569)
T1 construct: Endogenous rat brain protein or full-length rat Mint 3 from a pCMV5 vector; also called Mints/X11 3; pCMV-Mint 3
T1 sequence (looked up): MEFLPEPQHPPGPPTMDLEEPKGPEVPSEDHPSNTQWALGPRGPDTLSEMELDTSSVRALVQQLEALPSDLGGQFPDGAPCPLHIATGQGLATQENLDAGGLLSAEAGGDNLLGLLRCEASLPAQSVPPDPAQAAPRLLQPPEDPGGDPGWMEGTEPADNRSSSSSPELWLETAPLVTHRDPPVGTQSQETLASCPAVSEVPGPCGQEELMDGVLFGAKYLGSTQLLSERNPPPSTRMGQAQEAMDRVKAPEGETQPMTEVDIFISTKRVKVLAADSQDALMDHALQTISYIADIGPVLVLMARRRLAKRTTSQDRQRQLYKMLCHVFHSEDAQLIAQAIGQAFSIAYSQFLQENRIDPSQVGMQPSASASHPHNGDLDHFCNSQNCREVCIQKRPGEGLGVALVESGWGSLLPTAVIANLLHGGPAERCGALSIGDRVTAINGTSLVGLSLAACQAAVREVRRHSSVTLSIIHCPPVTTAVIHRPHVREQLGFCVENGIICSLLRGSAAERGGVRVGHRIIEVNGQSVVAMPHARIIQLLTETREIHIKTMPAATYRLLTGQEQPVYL

T2: Mint 1 (rat, UniProt O35430 1-839)
T2 construct: Full-length rat Mint 1 from pCMV5 vectors in transfected COS/HEK293 cells; also called Mints/X11 1; wild-type Mint 1
T2 sequence: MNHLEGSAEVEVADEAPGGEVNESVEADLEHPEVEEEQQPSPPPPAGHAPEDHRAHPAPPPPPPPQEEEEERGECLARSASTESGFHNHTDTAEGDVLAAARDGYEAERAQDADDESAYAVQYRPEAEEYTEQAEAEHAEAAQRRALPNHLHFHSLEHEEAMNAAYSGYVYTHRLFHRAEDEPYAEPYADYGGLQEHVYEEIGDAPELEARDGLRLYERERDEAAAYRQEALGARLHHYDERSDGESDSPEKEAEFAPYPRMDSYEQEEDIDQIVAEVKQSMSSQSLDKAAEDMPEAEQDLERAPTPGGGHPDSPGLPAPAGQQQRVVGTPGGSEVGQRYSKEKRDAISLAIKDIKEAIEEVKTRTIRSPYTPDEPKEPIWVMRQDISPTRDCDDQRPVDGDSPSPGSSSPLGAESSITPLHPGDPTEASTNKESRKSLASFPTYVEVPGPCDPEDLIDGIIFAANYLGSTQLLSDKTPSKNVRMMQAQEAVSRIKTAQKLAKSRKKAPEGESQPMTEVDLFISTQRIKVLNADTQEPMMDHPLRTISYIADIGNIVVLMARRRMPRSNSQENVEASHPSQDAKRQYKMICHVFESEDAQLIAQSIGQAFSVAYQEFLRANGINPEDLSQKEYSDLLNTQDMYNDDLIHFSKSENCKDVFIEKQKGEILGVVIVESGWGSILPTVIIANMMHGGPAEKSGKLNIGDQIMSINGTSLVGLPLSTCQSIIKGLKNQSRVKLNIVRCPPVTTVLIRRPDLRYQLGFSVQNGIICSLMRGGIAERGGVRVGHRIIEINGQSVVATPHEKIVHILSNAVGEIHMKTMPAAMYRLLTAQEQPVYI

T3: Mint 2 (rat, UniProt O35431 1-750)
T3 construct: Endogenous rat brain protein or full-length rat Mint 2 from a pCMV5 vector; also called Mints/X11 2; pCMV-Mint 2
T3 sequence: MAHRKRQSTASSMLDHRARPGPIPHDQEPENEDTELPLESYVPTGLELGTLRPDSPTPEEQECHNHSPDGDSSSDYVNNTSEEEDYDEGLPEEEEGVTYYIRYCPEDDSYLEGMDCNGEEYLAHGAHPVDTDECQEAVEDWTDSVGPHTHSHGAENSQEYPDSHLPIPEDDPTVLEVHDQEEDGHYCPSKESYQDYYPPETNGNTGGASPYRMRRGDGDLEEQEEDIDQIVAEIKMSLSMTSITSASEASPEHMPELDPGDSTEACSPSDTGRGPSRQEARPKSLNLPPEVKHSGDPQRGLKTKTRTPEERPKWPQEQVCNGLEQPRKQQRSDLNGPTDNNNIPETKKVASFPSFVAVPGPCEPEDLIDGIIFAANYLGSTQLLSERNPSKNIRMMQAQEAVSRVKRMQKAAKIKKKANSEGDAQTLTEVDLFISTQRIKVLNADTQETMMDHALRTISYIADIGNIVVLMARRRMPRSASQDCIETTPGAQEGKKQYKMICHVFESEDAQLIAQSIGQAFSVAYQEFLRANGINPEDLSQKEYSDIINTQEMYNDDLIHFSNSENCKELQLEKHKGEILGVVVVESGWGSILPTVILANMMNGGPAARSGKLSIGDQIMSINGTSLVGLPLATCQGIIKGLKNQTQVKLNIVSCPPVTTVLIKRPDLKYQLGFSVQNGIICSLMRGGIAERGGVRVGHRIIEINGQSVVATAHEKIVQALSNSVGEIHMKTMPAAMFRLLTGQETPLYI

B1: immobilized cytoplasmic peptide derived from APP (CGYENPTYKFFEQMQN) (peptide)
peptide: CGYENPTYKFFEQMQN
modifications: not fully specified (residue 1); also: immobilized on SulfoLink beads via N-terminal Cys
notes: Coupled through the added N-terminal Cys to SulfoLink beads; also called immobilized cytoplasmic tail of APP; immobilized APP tail
B2: Mint 1 ΔPDZ (other)
chain: MNHLEGSAEVEVADEAPGGEVNESVEADLEHPEVEEEQQPSPPPPAGHAPEDHRAHPAPPPPPPPQEEEEERGECLARSASTESGFHNHTDTAEGDVLAAARDGYEAERAQDADDESAYAVQYRPEAEEYTEQAEAEHAEAAQRRALPNHLHFHSLEHEEAMNAAYSGYVYTHRLFHRAEDEPYAEPYADYGGLQEHVYEEIGDAPELEARDGLRLYERERDEAAAYRQEALGARLHHYDERSDGESDSPEKEAEFAPYPRMDSYEQEEDIDQIVAEVKQSMSSQSLDKAAEDMPEAEQDLERAPTPGGGHPDSPGLPAPAGQQQRVVGTPGGSEVGQRYSKEKRDAISLAIKDIKEAIEEVKTRTIRSPYTPDEPKEPIWVMRQDISPTRDCDDQRPVDGDSPSPGSSSPLGAESSITPLHPGDPTEASTNKESRKSLASFPTYVEVPGPCDPEDLIDGIIFAANYLGSTQLLSDKTPSKNVRMMQAQEAVSRIKTAQKLAKSRKKAPEGESQPMTEVDLFISTQRIKVLNADTQEPMMDHPLRTISYIADIGNIVVLMARRRMPRSNSQENVEASHPSQDAKRQYKMICHVFESEDAQLIAQSIGQAFSVAYQEFLRANGINPEDLSQKEYSDLLNTQDMYNDDLIHFSKSENCKDV
B3: peptide derived from the gp41 glycoprotein (CWFSITNWLWYI) (peptide)
peptide: CWFSITNWLWYI
modifications: also: immobilized on SulfoLink beads
notes: Negative control peptide immobilized on SulfoLink beads; also called gp41 control peptide; Control
B4: Mint 1 PDZ1* (other)
chain: T2 sequence with G670A, V671A
notes: Produced in transfected COS or HEK293 cells; also called pCMV-Mint 1-PDZ1*
B5: peptide corresponding to the extreme C-terminus of human Presenilin 2 (CMDTLASHQLYI) (peptide)
peptide: CMDTLASHQLYI
modifications: also: immobilized on SulfoLink beads
notes: Has an added N-terminal Cys and is immobilized on SulfoLink beads; also called presenilin 2 C-terminal peptide
B6: peptide corresponding to the extreme C-terminus of Drosophila Presenilin (CMEDLSAKQVFI) (peptide)
peptide: CMEDLSAKQVFI
modifications: also: immobilized on SulfoLink beads
notes: Has an added N-terminal Cys and is immobilized on SulfoLink beads; also called Drosophila presenilin C-terminal peptide
B7: peptide corresponding to the extreme C-terminus of human HPV2 (poliovirus receptor-related protein 2; CGSLISRRAVYV) (peptide)
peptide: CGSLISRRAVYV
modifications: also: immobilized on SulfoLink beads
notes: Negative control peptide immobilized on SulfoLink beads; also called HPV2 control peptide
B8: peptide corresponding to the extreme C-terminus of human Presenilin 1 (CMDQLAFHQFYI) (peptide)
peptide: CMDQLAFHQFYI
modifications: also: immobilized on SulfoLink beads
notes: Has an added N-terminal Cys and is immobilized on SulfoLink beads; also called Pres1; presenilin 1 column

Tests used:
Mint 3 [1] = target: T1, Mint 3; test: affinity chromatography on the immobilized APP tail peptide, immunoblot
Mint 1 [2] = target: T2, Mint 1; test: as above
Mint 2 [3] = target: T3, Mint 2; test: as above
[4] = target: APP-Gal4/VP16 fusion protein (human; yeast, UniProt P05067 18-651; P04386 1-147; P06492 413-490; P05067 652-695); test: cell-based or functional assay
Mint 3 [5] = target: T1, Mint 3; test: affinity chromatography of rat forebrain membrane proteins on the gp41 control peptide
Mint 2 [6] = target: T3, Mint 2; test: as above
Mint 1 [7] = target: T2, Mint 1; test: affinity chromatography of rat brain extract on the immobilized gp41 control peptide, immunoblot
[8] = target: B8; test: affinity chromatography of COS cell-expressed Mint 1 proteins on the immobilized presenilin 1 C-terminal peptide
Mint 1 [9] = target: T2, Mint 1; test: affinity chromatography on the immobilized presenilin 2 C-terminal peptide
Mint 1 [10] = target: T2, Mint 1; test: affinity chromatography on the immobilized Drosophila presenilin C-terminal peptide
Mint 1 [11] = target: T2, Mint 1; test: affinity chromatography on the immobilized HPV2 control peptide
synaptophysin 1 (Syp) = target: T4, synaptophysin 1 (Syp) (rat, UniProt P07825 1-307); test: affinity chromatography of rat forebrain membrane proteins on the presenilin 1 C-terminal peptide
T4 construct: Negative control protein
T4 sequence (P07825 whole entry): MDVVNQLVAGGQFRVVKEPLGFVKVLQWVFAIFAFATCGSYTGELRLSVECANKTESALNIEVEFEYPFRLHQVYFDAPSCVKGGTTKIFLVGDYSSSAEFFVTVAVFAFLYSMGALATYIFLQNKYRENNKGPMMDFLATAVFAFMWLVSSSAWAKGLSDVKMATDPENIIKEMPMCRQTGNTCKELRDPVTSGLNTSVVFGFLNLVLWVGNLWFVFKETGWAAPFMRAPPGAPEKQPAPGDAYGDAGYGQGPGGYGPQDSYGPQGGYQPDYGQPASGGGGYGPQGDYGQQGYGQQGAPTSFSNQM

Mint 3 [12] = target: T1, Mint 3; test: affinity chromatography on the immobilized presenilin 1 C-terminal peptide, immunoblot
Mint 1 [13] = target: T2, Mint 1; test: as above
PSD95 = PSD95 (rat, UniProt P31016 1-724); test: affinity chromatography of rat forebrain membrane proteins on the immobilized presenilin 1 C-terminal peptide, immunoblot
Chain of PSD95 (P31016 whole entry): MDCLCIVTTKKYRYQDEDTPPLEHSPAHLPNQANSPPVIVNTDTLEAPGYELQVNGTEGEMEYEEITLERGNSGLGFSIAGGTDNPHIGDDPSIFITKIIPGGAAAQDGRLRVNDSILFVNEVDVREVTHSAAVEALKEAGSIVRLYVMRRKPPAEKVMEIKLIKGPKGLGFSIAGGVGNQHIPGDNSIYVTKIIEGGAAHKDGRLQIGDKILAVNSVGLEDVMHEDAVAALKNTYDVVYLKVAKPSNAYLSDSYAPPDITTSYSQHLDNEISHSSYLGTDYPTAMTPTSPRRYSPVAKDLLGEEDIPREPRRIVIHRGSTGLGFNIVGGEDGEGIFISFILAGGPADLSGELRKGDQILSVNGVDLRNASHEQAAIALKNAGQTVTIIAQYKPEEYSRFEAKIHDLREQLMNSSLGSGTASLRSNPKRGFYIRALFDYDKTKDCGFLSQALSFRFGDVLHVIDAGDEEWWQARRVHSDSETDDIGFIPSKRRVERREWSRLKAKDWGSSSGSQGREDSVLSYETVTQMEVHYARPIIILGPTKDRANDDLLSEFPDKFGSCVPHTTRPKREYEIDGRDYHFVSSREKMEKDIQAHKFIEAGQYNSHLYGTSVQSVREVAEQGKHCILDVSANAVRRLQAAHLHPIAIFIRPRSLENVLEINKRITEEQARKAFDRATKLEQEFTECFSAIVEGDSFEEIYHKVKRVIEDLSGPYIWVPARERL

Mint 2 [14] = target: T3, Mint 2; test: as above

Binder: B1
- binding result (Mint 3 [1]): binds
- binding result (Mint 1 [2]): binds
- binding result (Mint 2 [3]): binds

Binder: B2
- potency of inhibition of transactivation relative to wild-type Mint 1 (normalized to expressed protein) [4]: ~10 times more potent than wild-type Mint 1

Binder: B3
- binding result (Mint 3 [5]): no binding
- binding result (Mint 2 [6]): no binding
- binding result (Mint 1 [7]): no binding

Binder: B4
- fold decrease in binding against wild-type Mint 1 [8]: ~2 fold decrease

Binder: B5
- binding result (Mint 1 [9]): binds

Binder: B6
- binding result (Mint 1 [10]): binds

Binder: B7
- binding result (Mint 1 [11]): no binding

Binder: B8
- binding result (synaptophysin 1 (Syp)): no binding
- binding result (Mint 3 [12]): binds
- binding result (Mint 1 [13]): binds
- binding result (PSD95): binds
- binding result (Mint 2 [14]): binds
